# IntAct's records for PubMed 10837255
# B1: Spindle assembly checkpoint serine/threonine-protein kinase BUB1 (Saccharomyces cerevisiae), P41695 (parent)
# chain: MNLDLGSTVRGYESDKDTFPQSKGVSSSQKEQHSQLNQTKIAYEQRLLNDLEDMDDPLDLFLDYMIWISTSYIEVDSESGQEVLRSTMERCLIYIQDMETYRNDPRFLKIWIWYINLFLSNNFHESENTFKYMFNKGIGTKLSLFYEEFSKLLENAQFFLEAKVLLELGAENNCRPYNRLLRSLSNYEDRLREMNIVENQNSVPDSRERLKGRLIYRTAPFFIRKFLTSSLMTDDKENRANLNSNVGVGKSAPNVYQDSIVVADFKSETERLNLNSSKQPSNQRLKNGNKKTSIYADQKQSNNPVYKLINTPGRKPERIVFNFNLIYPENDEEFNTEEILAMIKGLYKVQRRGKKHTEDYTSDKNRKKRKLDVLVERRQDLPSSQPPVVPKSTRIEVFKDDDNPSQSTHHKNTQVQVQTTTSILPLKPVVDGNLAHETPVKPSLTSNASRSPTVTAFSKDAINEVFSMFNQHYSTPGALLDGDDTTTSKFNVFENFTQEFTAKNIEDLTEVKDPKQETVSQQTTSTNETNDRYERLSNSSTRPEKADYMTPIKETTETDVVPIIQTPKEQIRTEDKKSGDNTETQTQLTSTTIQSSPFLTQPEPQAEKLLQTAEHSEKSKEHYPTIIPPFTKIKNQPPVIIENPLSNNLRAKFLSEISPPLFQYNTFYNYNQELKMSSLLKKIHRVSRNENKNPIVDFKKTGDLYCIRGELGEGGYATVYLAESSQGHLRALKVEKPASVWEYYIMSQVEFRLRKSTILKSIINASALHLFLDESYLVLNYASQGTVLDLINLQREKAIDGNGIMDEYLCMFITVELMKVLEKIHEVGIIHGDLKPDNCMIRLEKPGEPLGAHYMRNGEDGWENKGIYLIDFGRSFDMTLLPPGTKFKSNWKADQQDCWEMRAGKPWSYEADYYGLAGVIHSMLFGKFIETIQLQNGRCKLKNPFKRYWKKEIWGVIFDLLLNSGQASNQALPMTEKIVEIRNLIESHLEQHAENHLRNVILSIEEELSHFQYKGKPSRRF
# partner: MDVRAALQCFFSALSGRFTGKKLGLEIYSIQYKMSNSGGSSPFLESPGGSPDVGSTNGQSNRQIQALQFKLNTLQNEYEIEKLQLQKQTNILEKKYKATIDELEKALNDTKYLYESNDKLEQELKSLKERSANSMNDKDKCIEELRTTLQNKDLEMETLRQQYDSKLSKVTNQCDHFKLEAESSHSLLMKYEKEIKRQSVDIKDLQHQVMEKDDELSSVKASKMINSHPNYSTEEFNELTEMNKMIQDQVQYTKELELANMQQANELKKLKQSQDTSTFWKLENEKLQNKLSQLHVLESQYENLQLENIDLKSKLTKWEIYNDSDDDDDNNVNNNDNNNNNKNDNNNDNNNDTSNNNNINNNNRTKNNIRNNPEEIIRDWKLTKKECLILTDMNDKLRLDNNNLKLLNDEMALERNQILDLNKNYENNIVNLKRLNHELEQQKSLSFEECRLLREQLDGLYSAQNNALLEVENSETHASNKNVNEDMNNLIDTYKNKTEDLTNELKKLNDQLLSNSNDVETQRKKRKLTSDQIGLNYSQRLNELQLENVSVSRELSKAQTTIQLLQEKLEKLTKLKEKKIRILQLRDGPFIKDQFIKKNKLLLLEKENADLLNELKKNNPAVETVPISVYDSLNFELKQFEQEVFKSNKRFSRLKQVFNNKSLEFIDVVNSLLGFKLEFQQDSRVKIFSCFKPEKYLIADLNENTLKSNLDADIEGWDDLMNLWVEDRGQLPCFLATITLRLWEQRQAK
# Variants of: B1
# Details: with mad1_yeast MAD1, P40957
row,effect of a mutation on the interaction,Variant
1,decreasing interaction,K733R
